Our source for the Km and kcat values is PMC5727262, “Molecular mechanism of K65 acetylation-induced attenuation of Ubc9 and the NDSM interaction” (Scientific Reports, 2017).

The target of one data set is T1, Ubc9 (WT) (Homo sapiens, UniProt P63279).
T1 construct: made in house; host or cells: E. coli (stated as BL21 (DE3) for the acetylated variant)
Briefly: Multiple-turnover in vitro sumoylation kinetics with WT Ubc9. Type of data set: biochemical. The following applies: Michaelis-Menten, SUMO-1 conjugation; for Km: 100 nM WT Ubc9, 10 μM SUMO-1, 150 nM E1, pH 7.5, SDS-PAGE/SYPRO-RUBY, triplicate; for kcat: 100 nM WT Ubc9, 10 μM SUMO-1, 150 nM E1, pH 7.5, triplicate. The method, then: (§1) Although the decreased Ubc9 binding to the NDSM substrates on K65 acetylation could explain the reduced levels of NDSM substrate sumoylation, we could not entirely exclude the possibility that K65 acetylation could also affect Ubc9 catalytic activity. To test this possibility, an enzyme kinetics study was performed using multiple-turnover in vitro sumoylation assays between WT or Ac-Ubc9K65 and GST fusion of SM derived from RanGAP1 (Fig. 3A and B), Elk1 (Fig. 3C and D), and CBP (Fig. 3E and F). […] In line with the ITC results, K65 acetylation increased the km values by 1.5–1.7 fold of the NDSM peptides, but not the RanGAP1 SM.
(§2) Figure 3 Effect of K65 acetylation on Ubc9 catalysis. (A) Summary of Michaelis–Menten kinetics applied to SUMO conjugation rates for GST-RanGAP1_481-587 (B and C), GST-Elk1_200-261 (D and E) and GST-CBP1000-1080 (F and G). Experiments performed in triplicate. TEXT PRINTED IN THE PICTURE: (A) RanGAP1: Km (μM): 24.8 ± 1.7 (Ubc9: WT); kcat (min^-1): 4.3 ± 0.1 (Ubc9: WT); Km (μM): 21.0 ± 4.4 (Ubc9: K65-Ac); kcat (min^-1): 4.1 ± 0.3 (Ubc9: K65-Ac) | (A) Elk1: Km (μM): 75.2 ± 5.9 (Ubc9: WT); kcat (min^-1): 3.7 ± 0.5 (Ubc9: WT); Km (μM): 110.7 ± 7.8 (Ubc9: K65-Ac); kcat (min^-1): 4.0 ± 0.2 (Ubc9: K65-Ac) | (A) CBP: Km (μM): 63.8 ± 7.9 (Ubc9: WT); kcat (min^-1): 3.8 ± 0.4 (Ubc9: WT); Km (μM): 111.0 ± 11.6 (Ubc9: K65-Ac); kcat (min^-1): 4.5 ± 0.4 (Ubc9: K65-Ac) | (A) Calpain2: Km (μM): N.D. (Ubc9: WT); kcat (min^-1): N.D. (Ubc9: WT); Km (μM): N.D. (Ubc9: K65-Ac); kcat (min^-1): N.D. (Ubc9: K65-Ac)
(§3) The kinetic analysis[27] was performed in a 40 μl reaction mixture containing 10 μM SUMO-1, 150 nM E1, 100 nM WT or Ac-Ubc9K65, and known quantities of sumoylation substrate dissolved in a buffer containing 20 mM HEPES (pH 7.5), 100 mM NaCl, 5 mM MgCl2, and 2 mM ATP. The samples were subject to SDS-PAGE and visualized by SYPRO-RUBY staining using the UVP Gel-Doc-It system to quantify the sumoylated and non-sumoylated protein bands. Data from triplicate experiments were plotted as a graph of reaction velocity against concentration of the substrate to obtain the Michaelis–Menten constant (km) and the turnover number (kcat).

Another data set concerns the target T2, Ac-Ubc9K65 (Homo sapiens, UniProt P63279).
T2 construct: made in house; host or cells: E. coli BL21 (DE3) with pAcKRS-3 and pCDF PylT-1-Ubc9 (amber codon at K65), fed acetyl-lysine
Briefly: Multiple-turnover in vitro sumoylation kinetics with Ac-Ubc9K65. Format: biochemical. The following applies: Michaelis-Menten, SUMO-1 conjugation; for Km: 100 nM Ac-Ubc9K65, 10 μM SUMO-1, 150 nM E1, pH 7.5, SDS-PAGE/SYPRO-RUBY, triplicate; for kcat: 100 nM Ac-Ubc9K65, 10 μM SUMO-1, 150 nM E1, pH 7.5, triplicate. The method, then:
as §1, §2, §3

T1 sequence (P63279 whole entry): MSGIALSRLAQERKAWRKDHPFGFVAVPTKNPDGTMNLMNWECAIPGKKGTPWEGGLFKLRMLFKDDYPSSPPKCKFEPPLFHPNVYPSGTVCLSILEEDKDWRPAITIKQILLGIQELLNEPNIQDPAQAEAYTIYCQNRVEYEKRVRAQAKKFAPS
T2 sequence (P63279 2-158): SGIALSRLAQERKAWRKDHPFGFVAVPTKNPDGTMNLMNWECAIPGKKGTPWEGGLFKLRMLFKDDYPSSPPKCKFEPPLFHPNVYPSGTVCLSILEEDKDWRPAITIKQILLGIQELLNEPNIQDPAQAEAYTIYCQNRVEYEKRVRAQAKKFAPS

B1: GST-Elk1_200-261: GST fusion of the sumoylation motif region derived from Elk1, sumoylation substrate (protein)
chain: SPSPLEACLEAEEAGLPLQVILTPPEAPNLKSEELNVEPGLGRALPPEVKVEGPKEELEVAG
modifications: also: GST fusion partner not in chain
notes: GST fusion of the sumoylation motif region derived from Elk1, sumoylation substrate
As usually defined, the Km is the concentration of substrate that gives half-maximal velocity. Usually kcat stands for the maximal rate divided by the concentration of active sites. With B1, in the data set with Ubc9 (WT), the Michaelis constant (Km) came out at 75.2 ± 5.9 µM and the turnover number (kcat) came to 0.0617 ± 0.0083 s⁻¹. In addition, in the data set with Ac-Ubc9K65, the Km is 111 ± 7.8 µM and the kcat came out at 0.0667 ± 0.0033 s⁻¹.

B2: GST-RanGAP1_481-587: GST fusion of the sumoylation motif region derived from RanGAP1, sumoylation substrate (protein)
chain: KDEATVRMAVQDAVDALMQKAFNSSSFNSNTFLTRLLVHMGLLKSEDKVKAIANLYGPLMALNHMVQQDYFPKALAPLLLAFVTKPNSALESCSFARHSLLQTLYKV
modifications: left off: GST, end not stated, kept
notes: GST fusion of the sumoylation motif region derived from RanGAP1, sumoylation substrate
Take B2: in the data set with Ubc9 (WT), the Km is 24.8 ± 1.7 µM and the kcat worked out at 0.0717 ± 0.0017 s⁻¹. In addition, in the data set with Ac-Ubc9K65, the Michaelis-Menten constant (Km) worked out at 21 ± 4.4 µM and the turnover number (kcat) turned out to be 0.0683 ± 0.005 s⁻¹.

B3: GST-CBP1000-1080: GST fusion of the sumoylation motif region derived from CBP, sumoylation substrate (protein)
chain: ETQAEDTEPDPGESKGEPRSEMMEEDLQGASQVKEETDIAEQKSEPMEVDEKKPEVKVEVKEEEESSSNGTASQSTSPSQP
modifications: left off: GST, end not stated, kept
notes: GST fusion of the sumoylation motif region derived from CBP, sumoylation substrate
Take B3: in the data set with Ubc9 (WT), the Km worked out at 63.8 ± 7.9 µM and the kcat came to 0.0633 ± 0.0067 s⁻¹. Besides, in the data set with Ac-Ubc9K65, the Km came to 111 ± 11.6 µM and the catalytic constant (kcat) is 0.075 ± 0.0067 s⁻¹.
